A short description of the series: amyloid nucleation score (Sup35N fusion, yeast selection) (log enrichment); library NNK1; higher = more nucleation; inactive = no reads after selection. In outline: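 The nucleation score is the log enrichment of output over input reads, calculated with DiMSum and centred on the mode score of non-aggregating sequences. Sequences with under 100 input reads were excluded. Reads came from Illumina sequencing of plasmid inserts from psi-negative yeast expressing Sup35N fused to peptides of 20 random codons, induced 24 hours with 100 μM copper sulfate and grown 7 days at 30°C without adenine and uracil.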

± gives the uncertainty stated by the source.

As to LEDHVWKVVVYLSKNDVCMG, the amyloid nucleation score turned out to be 0.269 ± 0.67. For SDEGLYPYLHLTFKTSTLWK the value was 0.201 ± 0.66. Substance YFWMIPMTGEVHNCPDLAPK showed an amyloid nucleation score of 0.386 ± 0.33. GVVACLFFWVRAFFYR: the amyloid nucleation score result was “inactive”. For FGLRFAHAHLINWPWMLSGS the value was 0.047 ± 0.76; for FLRVILRVYLAVLRGNRQCN, -0.716 ± 0.36. In the case of SMRRAI, the amyloid nucleation score was -0.263 ± 1.4. As for TEGTYDNSSCHSDALGECLW, the amyloid nucleation score turned out to be 0.281 ± 0.33. Regarding LFKSQFEFFEVGSVEDEFFR, the amyloid nucleation score result was “inactive”. Regarding AFVLDIYMGMRSRYNDAPS, the amyloid nucleation score stood at 1.78 ± 0.31. Regarding RIYTYSNCVGLKLAFTFAYR, the amyloid nucleation score is 0.642 ± 0.36. For VTSWQIDKLPWASANSLFWL the value was 0.334 ± 0.27.

Take YMVFVVVSI: the amyloid nucleation score is 0.946 ± 0.24. For DDFTLCKPGLVYMMSG the value was 0.398 ± 0.6. For FLPLMIASVSWRL the value was 0.455 ± 0.64. For CGFDRMAMYWVNFDLHWSSA the value was 0.121 ± 0.36. In turn, WNISSTFGYGNHWLG had an amyloid nucleation score of 0.816 ± 0.52. In the case of KCIGKHEAVMKIFNWDEENW it was 1.73 ± 0.49; in that of LKASWRAGRATVREKGCKLA, 0.505 ± 0.38.

Consider MGLFFERSVKCSLF, for which the amyloid nucleation score is -0.946 ± 1.1.

In turn, IVVSVVTASI gave an amyloid nucleation score of -0.018 ± 0.75. For NGTFVLDVRIRSRRSERPLG the value was 4.09 ± 0.06; for VSYFVHIC, 0.145 ± 0.56; for SEEGMCSSMGVD, “inactive”. QYSCGSYYLERSGNVSRRKS: the amyloid nucleation score was -0.084 ± 1.6. In the case of HRAWAQVFFPELARSLVRSQ it was 0.216 ± 0.6; in that of SNSGIKGFGGMIPRV, 3.92 ± 0.1; in that of HRWSDVFPWRTVKMYQLSRC, 0.552 ± 0.76. In the case of LWYCYYSVVFILSGALSHCV it was -0.252 ± 1.4.

In turn, RKSVKRVAKGGNS showed an amyloid nucleation score of 3.82 ± 0.14. For VTVTYIRCTR the value was 1.25 ± 0.63; for TYVSNNPKGNPTLHAYFSF, 0.68 ± 0.97; for WRVHSNKRKLGSCLLTGTIF, 0.656 ± 0.5. For the substance SSPTLLSWVKW, the amyloid nucleation score worked out at 0.99 ± 0.58. For WWSYRKCRALNRRFQFFSYR, the amyloid nucleation score result was “inactive”. In the case of EDNRKIRRVMSIQS it was 0.063 ± 0.57; in that of EGHWGFWPIGSFTCTSFLVY, 0.86 ± 0.58. In the case of FRTHRPTIFHFIGMRLRTLA it was 0.399 ± 0.91; in that of RRRIEHAALVCV, 0.055 ± 1.1.

Consider WSRTNMIYNPSVGAIYRV, for which the amyloid nucleation score was -0.021 ± 0.41. ELSDTVFRRVCNLIVMVTPV gave an amyloid nucleation score of 1.05 ± 0.4. For SNSFALALLPGGT the value was 0.275 ± 0.75. For IGTLFTSNSYFWYLVVG the value was 2.51 ± 0.13; for VFFGVVQLICDGVKEIFPNL, 4 ± 0.1; for TLRSTWFRMCHTISA, 0.441 ± 0.25. In the case of YVFSG, the amyloid nucleation score was -0.202 ± 0.32. Turning to LAWTMSQQIGETRRGAEMCT, the amyloid nucleation score came out at 0.106 ± 0.33.

The substance NTDSLLFNLISLMRNRERFK registered an amyloid nucleation score of 0.351 ± 0.54.

Turning to VCIECTVAVKFHGYMRHSCC, the amyloid nucleation score amounted to 1.09 ± 0.54.

LRIERMWVWVSA showed an amyloid nucleation score of 0.556 ± 0.65.

On to GIISASSVNTQRWTSGTNTC, for which the amyloid nucleation score result was “inactive”.

In the case of TLCQNSGKFCMYTWLSVYVD, the amyloid nucleation score was 0.423 ± 0.26.

FTIIFSTYISMVVVDLRVVP returned an amyloid nucleation score of -0.409 ± 0.36. VLWPLTISLWC: the amyloid nucleation score is -0.236 ± 0.51.

Substance RSASAREHNTALRSRPARVG displayed an amyloid nucleation score of -0.353 ± 1.7. In the case of SWASLIC it was -0.838 ± 0.89; in that of MYETWFTFRWKLTDI, -0.007 ± 0.39.

In turn, RLWNSRWFPGNLNCWVKLEW had an amyloid nucleation score of 0.044 ± 1.1. With CGADVNVWMTIWHYLFIDRG, the amyloid nucleation score result was “inactive”. LREGTFRLRQVTTFRGYRPW showed an amyloid nucleation score of 0.101 ± 0.37.

Turning to SFVFAVWFW, the amyloid nucleation score is 0.181 ± 0.83. In the case of MYGLLEDERTVCQWKMICVV it was -0.157 ± 0.69; in that of VVTRWLASNNDGGIESLLIK, 0.132 ± 0.33; in that of SGMGMSPLMMIWCRSSNRDL, “inactive”. In the case of YTQFYVLESIYRTTLCP it was 0.554 ± 0.58; in that of TKNVLLTYGHPMLDMFAVVY, “inactive”; in that of TSLCMIHYVK, -0.069 ± 1.1.

Take FCFILSNVFLGLWMI: the amyloid nucleation score was -1.37 ± 2.7. In the case of WGTPLMV it was 0.31 ± 0.63. For VFDAKGLNAHFNEVNVVYIR, the amyloid nucleation score came out at 4.77 ± 0.062. For YAINMVYYV the value was 1.16 ± 0.29; for HCHFIFGGMIGS, -0.144 ± 1.2. In turn, GLDCVRGNQWVNQGVL came in with an amyloid nucleation score of 2.32 ± 0.15. As for VWIICQHGG, the amyloid nucleation score was 4.09 ± 0.11. As for NSIHFCGGGRLHSAKLDVSS, the amyloid nucleation score entry was “inactive”. For the substance QTMVTLGSKLIYDESGIVMV, the amyloid nucleation score result was “inactive”. KVLWMSSHLYSATSCCVKRS: the amyloid nucleation score worked out at 1.82 ± 0.34. Turning to GGVGLDWLEVVFVCTRGQYD, the amyloid nucleation score result was “inactive”.

Regarding WLDAVGMAAG, the amyloid nucleation score was -0.989 ± 2.7.

The substance SKRLLQL came in with an amyloid nucleation score of -0.665 ± 0.87. In the case of WTMNLLA it was -0.048 ± 0.16; in that of VVDVQALSWSRGADLSSW, 1.02 ± 0.68. FEHVPLFTTMPIEEFYRIVY yielded an amyloid nucleation score of 0.262 ± 0.28.

On to PFFRVVY, for which the amyloid nucleation score result is “inactive”. YDRAWMLRPTLLWLTQTVVR showed an amyloid nucleation score of 2.21 ± 0.13. FMPYWNTLNFMSYGVRLIHK: the amyloid nucleation score is 0.231 ± 0.65.

In turn, KFWTGPIRYVN showed an amyloid nucleation score of -0.149 ± 0.31. As to VFVVDIFLFVMNCPYDPLSR, the amyloid nucleation score amounted to 2.6 ± 0.066. For CLRLVQEFTFMYTVVHGARC the value was 1.13 ± 0.71. For FQVFYFGCGRHVMVSSYRWV the value was -0.363 ± 0.54. In the case of FMDKVFSIP it was -0.101 ± 0.78; in that of LNTFWKIRTNMSMGTWS, 0.79 ± 0.65; in that of SLWITFLPLIGLSAVRRRVR, -1.24 ± 1.4. On to LISPVQSNTSAMVCELSDPY, for which the amyloid nucleation score amounted to 0.56 ± 0.76.

Turning to AHIISIKYLGSIFNKRRRFA, the amyloid nucleation score is 0.874 ± 0.66. On to LDLGEV, for which the amyloid nucleation score was determined as 0.025 ± 0.36. On to IWMYP, for which the amyloid nucleation score is 1.7 ± 0.65. For SMLDNDTSNMLEMPIGMYVA the value was “inactive”; for RFGWISMYSCSRWHCMRNLY, 1.13 ± 0.19; for KMLVSDTNGESSPLL, 0.124 ± 0.39. For HKDVQGYVD the value was 1.01 ± 0.97. In turn, VVSSRSIMGTVRMNEKVVAT displayed an amyloid nucleation score of -0.563 ± 0.46. In the case of IDKSVGLVHKTHYWFQPWYK, the amyloid nucleation score is 0.445 ± 0.43. Turning to NGADTSSQAF, the amyloid nucleation score was -0.182 ± 1.3. In turn, GSCGYSTVVDVVCYLDLLLI gave an amyloid nucleation score of 0.131 ± 0.43.

Turning to KLSDSSLTKCRYSHFYRSSM, the amyloid nucleation score is -1.99 ± 2.4.

As for FFHFTVSGMPGYSRSY, the amyloid nucleation score came to 2.73 ± 0.17. RLMTASTALGPYTRDLGAYY: the amyloid nucleation score is -0.089 ± 1.2. In the case of KCNVTQFVRSLYIRMSMLLH it was 0.534 ± 0.39; in that of LGCLQLITSERGPDYYKVAT, 0.218 ± 0.41. In the case of ERLFELKCPNFCAELGSDS it was 0.24 ± 0.41. For AWGRDYEELSSPLGMKALTW the value was 0.381 ± 0.31; for GGLRWRRCFLP, -1.58 ± 0.93. Substance LPCHWVHVQGHHWLRLDVMC had an amyloid nucleation score of 0.2 ± 0.64.

As to CRRIWA, the amyloid nucleation score is -0.377 ± 0.34. In turn, CWGLLSGDCHALEKFNRFYL had an amyloid nucleation score of -0.086 ± 0.48. In the case of GMQIKYNLCSRKTLVENGIS, the amyloid nucleation score is 3.48 ± 0.12. For IDRSLETTTVRGLVVRCYNG the value was 0.369 ± 0.35; for GRGQWQPAFTKLPYLILSVV, -0.152 ± 0.94; for MGDSISVFMKSRFCVCTWGG, “inactive”.

In the case of MSAIVSHYLVHCKFQSGNSH, the amyloid nucleation score is 3.63 ± 0.12. SKAKYGESSVWRVGLMGCF yielded an amyloid nucleation score of -1.06 ± 0.83. Consider GGTNFKDDDV, for which the amyloid nucleation score was 0.683 ± 1.

For WVYMANRVEYRRASRNMS, the amyloid nucleation score entry was “inactive”.

Turning to LLMNQV, the amyloid nucleation score came out at 0.715 ± 0.5. On to NDCKSQRSRNSMGCQ, for which the amyloid nucleation score result was “inactive”. For TLGPAWNVKFAWVFSFLVCI the value was 0.933 ± 0.7; for VQIWAAELMTDRRK, 0.436 ± 1.2; for ECSRGVVIIWDMHVGGIDEC, 1.79 ± 0.41. For the substance FGDGIDSNVSMVEN, the amyloid nucleation score entry is “inactive”. For TIYTSSGVVMALVHRLHLVA the value was -1.1 ± 0.68; for GYGAKWVLVVS, 1.25 ± 0.47. For AATGRTVCESREWGKVLAVC the value was -0.459 ± 0.38.

LMWVSRR yielded an amyloid nucleation score of 0.13 ± 0.38. In the case of LRSTLPADRRGLICFSHI it was 0.528 ± 1. In turn, LGKRDFSGFSAKSQLFK returned an amyloid nucleation score of -0.613 ± 0.27. For SACALSYYCGWISRCSYLCP the value was -0.158 ± 0.63; for FGSLRHCFTFNCNPGMGVWV, 2.53 ± 0.16; for YNSWFI, 0.586 ± 0.55. In the case of YCNGSLLRLAYMFGSGVSPR it was 0.935 ± 0.46.

These data come from the supplement of paper PMC12042874.
